Assays:
Assay in all cases: fluorescence anisotropy; Fluorescence anisotropy: 25 nM RNA, 100 mM NaCl, 25 mM HEPES pH 6.8, 0.2 mM TCEP; temperature not stated; three replicates
Conditions in all cases: protein: recombinant; label: 5'-fluorescein; single strand
[1] = target: U2AF2 12L WT (UniProt P26368 141-342)
[2] = target: U2AF2 12L Arg150His (UniProt P26368 141-342, R150H)
[3] = target: U2AF2 12L Arg150Cys (UniProt P26368 141-342, R150C)
[4] = target: U2AF2 12L Arg149Trp (UniProt P26368 141-342, R149W)
Chain of U2AF2 12L Arg149Trp (P26368 141-342 R149W): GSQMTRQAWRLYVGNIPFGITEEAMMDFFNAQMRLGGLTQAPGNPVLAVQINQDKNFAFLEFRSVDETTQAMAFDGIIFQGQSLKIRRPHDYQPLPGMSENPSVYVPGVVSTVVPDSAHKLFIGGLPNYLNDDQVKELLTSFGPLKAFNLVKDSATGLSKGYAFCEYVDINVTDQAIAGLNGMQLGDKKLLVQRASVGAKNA

Chain of U2AF2 12L Arg150His (P26368 141-342 R150H): as the sequence (P26368 141-342 R149W) above, with W9R, R10H counted along it
Chain of U2AF2 12L WT (P26368 141-342): as the sequence (P26368 141-342 R149W) above, with W9R counted along it
Chain of U2AF2 12L Arg150Cys (P26368 141-342 R150C): as the sequence (P26368 141-342 R149W) above, with W9R, R10C counted along it

B1: nine-uridine consensus Py tract RNA (ssRNA)
RNA: UUUUUUUUU
**Q.** What does the source list for B1?
**A.** binding result [1]: binds; binding signal [2]: ~4 fold decrease in affinity vs WT; binding signal [3]: ~5 fold decrease in affinity vs WT; binding signal [4]: ~3 fold decrease in affinity vs WT

Reference: article PMC11542177, “Recurrent Neurodevelopmentally Associated Variants of the Pre-mRNA Splicing Factor U2AF2 Alter RNA Binding Affinities and Interactions”
